Source: paper PMC3359993
Like-named read-outs stand apart in the source and are kept apart here.

T1: Rel-49, the C-terminal IkB domain of Relish, N-terminal StrepTagII and C-terminal His tag (Drosophila melanogaster)
T1 sequence (Q94527 whole entry, looked up): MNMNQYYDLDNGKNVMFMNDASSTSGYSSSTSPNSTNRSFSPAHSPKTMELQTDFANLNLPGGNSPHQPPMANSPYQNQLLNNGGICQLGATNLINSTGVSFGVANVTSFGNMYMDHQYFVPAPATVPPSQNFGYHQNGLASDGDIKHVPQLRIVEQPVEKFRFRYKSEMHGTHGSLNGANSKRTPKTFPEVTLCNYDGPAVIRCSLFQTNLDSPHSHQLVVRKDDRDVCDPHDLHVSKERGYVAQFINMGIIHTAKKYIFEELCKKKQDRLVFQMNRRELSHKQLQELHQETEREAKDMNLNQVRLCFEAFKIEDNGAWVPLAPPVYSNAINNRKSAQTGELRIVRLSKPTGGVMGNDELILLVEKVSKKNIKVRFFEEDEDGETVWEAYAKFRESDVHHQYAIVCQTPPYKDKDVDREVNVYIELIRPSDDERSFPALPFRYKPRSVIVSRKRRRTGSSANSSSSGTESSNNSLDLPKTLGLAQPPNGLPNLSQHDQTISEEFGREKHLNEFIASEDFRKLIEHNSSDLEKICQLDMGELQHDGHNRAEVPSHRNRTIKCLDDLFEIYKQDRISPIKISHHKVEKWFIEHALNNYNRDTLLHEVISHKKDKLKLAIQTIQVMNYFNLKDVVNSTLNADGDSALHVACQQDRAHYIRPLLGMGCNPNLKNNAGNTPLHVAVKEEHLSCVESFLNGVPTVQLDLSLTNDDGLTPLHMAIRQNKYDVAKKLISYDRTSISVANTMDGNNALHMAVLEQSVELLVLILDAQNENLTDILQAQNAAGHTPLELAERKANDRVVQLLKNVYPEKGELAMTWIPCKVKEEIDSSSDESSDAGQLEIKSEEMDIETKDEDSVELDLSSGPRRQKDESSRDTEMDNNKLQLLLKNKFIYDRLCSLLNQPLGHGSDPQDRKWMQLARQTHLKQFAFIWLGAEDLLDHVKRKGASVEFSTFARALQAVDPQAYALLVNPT


Experiments:
[1] = target: Dorsal, truncated (RHD, NLS and 20 additional C-terminal residues), StrepTagII-tagged (Drosophila melanogaster); experiment: SEC; gel filtration of each purified recombinant protein, compared with molecular mass standards
[2] = target: T2, Ank-H4 of Microplitis demolitor bracovirus, full length, N-terminal His tag (Microplitis demolitor bracovirus (MdBV)); experiment: SPR; Biacore 3000, room temperature; IkB or Ank immobilised on CM5 by amine coupling (about 5500 RU); Rel homodimer as analyte, kinetic titration, five doubling injections (typically 160 nM to 2.56 uM), 60 or 90 s, 30 uL/min; 10 mM HEPES pH 7.4, 150 mM NaCl, 3.4 mM EDTA, 0.005% P20; 1:1 Langmuir …
[3] = target: Ank-N5 of Microplitis demolitor bracovirus, full length, N-terminal His tag (Microplitis demolitor bracovirus (MdBV)); experiment: as above
[4] = target: T1, Rel-49, the C-terminal IkB domain of …; experiment: as above
[5] = target: T2, Ank-H4 of Microplitis demolitor …; experiment: as above; remark: listed apart in the source
[6] = target: Dorsal, truncated (RHD, NLS and 20 additional C-terminal residues), N-terminal thioredoxin fusion (Drosophila melanogaster); experiment: SEC; gel filtration of each purified recombinant protein, compared with molecular mass standards
[7] = target: Relish, truncated (RHD, NLS and 20 additional C-terminal residues), StrepTagII-tagged (Drosophila melanogaster); experiment: as above
[8] = target: Relish, truncated (RHD, NLS and 20 additional C-terminal residues), N-terminal thioredoxin fusion (Drosophila melanogaster); experiment: as above

T2 sequence (Q5I144 whole entry): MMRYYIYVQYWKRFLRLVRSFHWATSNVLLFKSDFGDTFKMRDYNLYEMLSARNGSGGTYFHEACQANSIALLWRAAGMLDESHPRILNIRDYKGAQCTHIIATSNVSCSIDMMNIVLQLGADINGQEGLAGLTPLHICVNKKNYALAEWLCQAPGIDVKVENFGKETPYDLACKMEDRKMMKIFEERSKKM
Chain of Ank-N5 of Microplitis demolitor bracovirus, full length, N-terminal His tag (Microplitis demolitor bracovirus (MdBV)) (Q5I126 whole entry, the tested form may be a part): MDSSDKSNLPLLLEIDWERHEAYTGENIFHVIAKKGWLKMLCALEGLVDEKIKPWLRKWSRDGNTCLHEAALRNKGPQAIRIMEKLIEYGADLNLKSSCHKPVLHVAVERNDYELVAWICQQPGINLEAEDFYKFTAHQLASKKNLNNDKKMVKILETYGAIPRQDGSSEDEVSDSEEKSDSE

Row | Binder | stoichiometry N [1] | Kd [2] [nM] | koff [2] [s⁻¹] | kon [2] [M⁻¹ s⁻¹] | Kd [3] [nM] | koff [3] [s⁻¹] | kon [3] [M⁻¹ s⁻¹] | Kd [4] [nM] | koff [4] [s⁻¹] | kon [4] [M⁻¹ s⁻¹] | Kd [5] [nM] | stoichiometry N [6] | stoichiometry N [7] | stoichiometry N [8]
1 | Dorsal, truncated (RHD, NLS and 20 additional C-terminal residues), StrepTagII-tagged (domain or fragment, modifications not checked) PYVKITEQPAGKALRFRYECEGRSAGSIPGVNSTPENKTYPTIEIVGYKGRAVVVVSCVTKDTPYRPHPHNLVGKEGCKKGVCTLEINSETMRAVFSNLGIQCVKKKDIEAALKAREEIRVDPFKTGFSHRFQPSSIDLNSVRLCFQVFMESEQKGRFTSPLPPVVSEPIFDKKAMSDLVICRLCSCSATVFGNTQIILLCEKVAKEDISVRFFEEKNGQSVWEAFGDFQHTDVHKQTAITFKTPRYHTLDITEPAKVFIQLRRPSDGVTSEALPFEYVPMDSDPAHLRRKRQKTGGDPMHLLLQQQQKQQLQN | 2 | 858 | 0.0067 | 7810 | 416 | 0.003 | 7230 | 783 | 0.00645 | 8240 | 858000 | – | – | –
2 | Dorsal, truncated (RHD, NLS and 20 additional C-terminal residues), N-terminal thioredoxin fusion (domain or fragment, modifications not checked) PYVKITEQPAGKALRFRYECEGRSAGSIPGVNSTPENKTYPTIEIVGYKGRAVVVVSCVTKDTPYRPHPHNLVGKEGCKKGVCTLEINSETMRAVFSNLGIQCVKKKDIEAALKAREEIRVDPFKTGFSHRFQPSSIDLNSVRLCFQVFMESEQKGRFTSPLPPVVSEPIFDKKAMSDLVICRLCSCSATVFGNTQIILLCEKVAKEDISVRFFEEKNGQSVWEAFGDFQHTDVHKQTAITFKTPRYHTLDITEPAKVFIQLRRPSDGVTSEALPFEYVPMDSDPAHLRRKRQKTGGDPMHLLLQQQQKQQLQN | – | – | – | – | – | – | – | – | – | – | – | 2 | – | –
3 | Relish, truncated (RHD, NLS and 20 additional C-terminal residues), StrepTagII-tagged (domain or fragment, modifications not checked) KHVPQLRIVEQPVEKFRFRYKSEMHGTHGSLNGANSKRTPKTFPEVTLCNYDGPAVIRCSLFQTNLDSPHSHQLVVRKDDRDVCDPHDLHVSKERGYVAQFINMGIIHTAKKYIFEELCKKKQDRLVFQMNRRELSHKQLQELHQETEREAKDMNLNQVRLCFEAFKIEDNGAWVPLAPPVYSNAINNRKSAQTGELRIVRLSKPTGGVMGNDELILLVEKVSKKNIKVRFFEEDEDGETVWEAYAKFRESDVHHQYAIVCQTPPYKDKDVDREVNVYIELIRPSDDERSFPALPFRYKPRSVIVSRKRRRTGSSANSSSSGTESSNNSLD | – | 345 | 0.0067 | 19400 | 30300 | 0.00179 | 59 | 2750 | 0.00378 | 1380 | – | – | 2 | –
4 | Relish, truncated (RHD, NLS and 20 additional C-terminal residues), N-terminal thioredoxin fusion (domain or fragment, modifications not checked) KHVPQLRIVEQPVEKFRFRYKSEMHGTHGSLNGANSKRTPKTFPEVTLCNYDGPAVIRCSLFQTNLDSPHSHQLVVRKDDRDVCDPHDLHVSKERGYVAQFINMGIIHTAKKYIFEELCKKKQDRLVFQMNRRELSHKQLQELHQETEREAKDMNLNQVRLCFEAFKIEDNGAWVPLAPPVYSNAINNRKSAQTGELRIVRLSKPTGGVMGNDELILLVEKVSKKNIKVRFFEEDEDGETVWEAYAKFRESDVHHQYAIVCQTPPYKDKDVDREVNVYIELIRPSDDERSFPALPFRYKPRSVIVSRKRRRTGSSANSSSSGTESSNNSLD | – | – | – | – | – | – | – | – | – | – | – | – | – | 2
